The values below come from the domain aggregation screens of Martell et al. (2025).

The data set in a line: soluble fraction after stress (log2 fold change); higher = more stays soluble; pooled small domains, quantitative proteomics. Conditions: stress: 50 degC. Put shortly: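 Pooled custom libraries of small protein domains were each held under stress at 50°C. The read-out, high-throughput quantitative proteomics, tracked how much of each protein stayed soluble. This is reported as a base-two log fold change used to indicate aggregation propensity. Higher values mean more protein remains in solution.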
On to “HMRNLFWTEAQNAQNELNAMRINALTQSIRRIEPNFRGIPSLRDPNRPIPNEEVRDYENYLNRILP”, for which the “soluble fraction (log2)” value came out at 0.119.
On to “HMRAPETEITYTEFKTALRAGQIETATVGIEQISGKLTDGDLYRTVRVDDPDLLKDLEANHVNAAGRV”, for which the “soluble fraction (log2)” value came out at 0.104.
In the case of “HMSLSVEESYKLLDISPSAGDEEITKKFRLLALKYHPDKNRSKIEWANNIMSRLNQAYSVIMSSRFESNAE” it was -0.476; in that of “HMPRKLDDQLQEQIRYLKSNYPRMSAAGIFRQLQDNGSIKHGDVSESTINRYVNLLSIEMKTTT”, -0.223.
In the case of “HMTALISGNKAMQMLELSRHSFEKIVKDGLLSIVHEGDKKYYEIGEVEAFMGSDTYKELVNGV” it was -0.345.
In the case of “HMASFGDLSGLKRTYPPQGLPDASRIADFLIARNEGDLSVEQVKALERFLFEHPDHERTARLVAATRVPA” it was -0.0263; in that of “HMKYSQAMIAQIIKHFHLPNNTVVTGEDVDAILLRSVDGGDGIYGGDVVSIWKYYKKQNDIQEIVT”, -0.645; in that of “HMTQQNRDELYRRMIDAGWDQLVRNGIRSLRVEQVAAAVGIAKGTFYHFFDSKDDFIYAMLMENRQ”, -3.07.
Turning to “HMVQLAEGERYRRIQEANDFINRQQWPGKAAMGRLKDTEKAQYNLWLDYLDALEAVDTSSAPKINWPVPPE”, the “soluble fraction (log2)” value worked out at 0.167.
For “HMKELFGQRLREQRLKQNLTLEQLAEKANLSPNYVGMVERGLKEPGLATIVKLLNGLNVSADTLL” the value was -0.036.
Turning to “HMNLGDSLFHARRKQGLSQEAVAEQLGVSRQTVSKWEANETLPDIRQSKLMAKLYHTSLDELI”, the “soluble fraction (log2)” value stood at 0.00427.
For “HMTGLSAQILAKLRDNHGVLPVSDKSDPAVISNLFGVSKGNFKKAIGGLYKEGQIVIHADRIEL” the value was -0.0576; for “HMIQADFIPQVEQRLADRGLSMSGDVMAAFLDRAGYGLRHVSNEIEKLSLYLGDRKKVTVEDVVQMVAPVR”, -0.283; for “HMKSPAQAAALKKLWAAIKQNEQGEVVEVLFHNRKLTDAGLVHLKGLANLQTLNLYDTKITGAGLVHL”, 0.0876.
Consider “HMIKEVEYSQFLQMTDQGEVGKVEINEQENSILFTDKAEKNIYKTGMVEDAELSMRLYEAGIPFSGQI”, for which the “soluble fraction (log2)” value is -0.0245.
For “HMKHRFVVGEVLSIGKLQHEITLKTAQGERKFQLDKQDLPASIQDGAKVRAELNEAGRVIDVHPLK” the value was 0.355.
For “HMNIIATHTVPAIEQKIRLQEYAISIFPQINSRSALKKAIAKKLVLLDGERASTADWIQPGQKIELLEDK” the value was -0.337.
As to “HMNPFPDNTAEVLSQFKNIIVPELNTGQLSKLLRARYLVDTVGINKVEGLPFTAQELEEKIESLINSF”, the “soluble fraction (log2)” value was -0.323.
For “HMSGFPTDAQIVREIRNILPTLENPTPRMVRKALENTFEVDMGESKTKKYINNIIITEYEKWSSVQSIRE” the value was -0.534.
As for “HMWSQEPEYRPLYNSMDGFDAGQVVEMLQQSRIDYKVEPNSGALLVRSEDLADARLRLASAGISP”, the “soluble fraction (log2)” value was -0.0156.
For the sequence “HMGIVAQLPTIRVNGKTLYYYDAQSGDNIYSIAEKLGVTVEDIRANNPGVADGVKPRMRLFFPTSLAK”, the “soluble fraction (log2)” value worked out at 0.165.
“HMFDVRWEQGYALAAAYAQEYGNLDVPRDYKTADGKKLGRWIQSQEQAYEQKKLSEEQISRLEMIGMQWG”: the “soluble fraction (log2)” value is -0.604.
In the case of “HMGETYTIPDVRGYTLEDAMELPEIKENGFTIIEGRQIVDADVPVGQIISQTPEAESIAKSNVKEITVNIS” it was 0.0323; in that of “HMKDSKSALQEYALERKMGLPVYEVVDRSGPDHAPQFVIAVSLGEWRLEAKGASKRQAEQQAASLMLEEI”, -0.353; in that of “HMVDKSYIHNQQVASDTWTVQHNLGKYPAVSVADTGNNEVYGDVRHINENTVELKFSHPFSGVAFF”, 0.281.
For “HMNVKQALLELMQRKPELTGSAIARAIGYSPAVISQYLKDGYPGDVVKLTTLIGDFIRRIDEKERS” the value was -0.182; for “HMKLTEGETIFLNESDTADWKKIPGIGSVYASRIVKYRNLLGGFVSVNQLREVYGIDDELFAKIYPYI”, -0.0044.
In the case of “HMQVQHVWNRLKRPNGDVLYEINRDHPLVSASLDAAADRGAIETLLRQIEQSLPVNQLYVDMNADEHFE” it was -0.301.
With “HMFIRINQTQNSPRKSVQIVESKRDGHKVRTKILRHVGIAMDDVELQKLKSLAQDIIAKMTVETENASKQ”, the “soluble fraction (log2)” value was -0.00422.
In the case of “HMLGERIRRLRKEMGMSVTELARRVKTSPSYISEIEKGEKTPSLNLLVRIASELRTGIDYLTGL” it was -0.294; in that of “HMIRVVSIEDQPWFVAADVLKSLGMPTDKGVGKYLLALGSDERMLTTHGQIGGKGMAVTTIISESGLY”, -0.46.
For “HMQKFLEATGENRDAAVENALEQLGLERDDVSVEVLEIGKKGFLGIGATPARVRVTYEAPDI” the value was -0.0313; for “HMEISEILNPPLVTAMAERYPEVDVSYYRDKYILYYESREHKITDHRRNFEKWLLVESQKEEN”, -1.07; for “HMDIVGAINKIESMKQDRYLAMHPYSITHSADGYYRTYLPADDGKRKQIKKKSKSDLEKVVIDYWTKRS”, 0.0365.
In the case of “HMAIPEVDPAKQGVSATQLAALDALAHRNAGEGRVAGMVNVVIRNGEIVYYKATGPRHIDGGAPLKSTDLF” it was -0.153; in that of “HMDDLTTASIKQQLKALIDEENKNKPLSDQKLTDALKAQGIDISRRTVAKYREAMNIPGSSKRKRF”, 0.0936; in that of “HMPIGENIKRLRIMHGLSQKELAQIAGVSDKAVSTWENGTKEPRMGAVQKITGYFGLKKSNLIEDNGL”, -0.0331.
Consider “HMLRISEEVWALVEKTLREDWSPEQVSGKLKASGISVSHERIYQHIYADKRVGGTLWTHLRR”, for which the “soluble fraction (log2)” value is -2.3.
For “HMQSYSTIIGVIELRLSGIGYRTTKARYGIGNSTVTLIMNRFKETGFTLDDLKTMEPTKVEALFYPP” the value was -0.873; for “HMNEVIIKNWSNAVGRNIKIKTKRGRPIFGRLLAINDQQLTIASKYMRGNATITVAREDVVSMSVS”, -0.516.
In the case of “HMSQTPDLQQERANLGDNADARIEAVDLWANKFFPEEHADAILQIGQTAKGIEALEFIMSKV” it was 0.0193; in that of “HMRSFGRLRRRDSGRWEAAYVGPDARLYRAPATFEAKDDAIAWLSAERRMIELDTWIKPHDRASR”, -1.11; in that of “HMDGEAQTYVEYGKWFPADLPLEAVRQLADGVPVTKELVAALNPRRSEWEEIKAGLDKIGYPNELL”, 0.0308.
In the case of “HMSWDNELLERAHKIIELYPQKRSALGPLLYLAQEKDGFISDDSIVEISNLVDITEVQVKSVSSFYSMY” it was -0.268.
Turning to “HMEPSAQEIANKLLGHVKSLGLPITGLSISYNSTSDLATVRGQVQSQADREKIILAVGNVDHVAKVDDQLT”, the “soluble fraction (log2)” value was -0.0356.
For “HMADVYFDGKFLGETPVTVAVSTTGKPAHEISLIRGGYEPWSTTYQGNPRPGQTATVMAILVHA” the value was 0.287.
For “HMDFRQALNTSADSDANKVALLESIVKGKYVSSTVNLLRRVITLRRGRSIDATLAAYSHYVSIR” the value was 0.313.
For “HMTEAIDVPNLVGQNYSDVKSNSSYKFNWDIINVYDSGKPEGEIIKQEPEAGSKKVKENAVITLTVN”, the “soluble fraction (log2)” value stood at 0.278.
For “HMKNELNSKLIISIKEALPPQIKVATYLMDLLSLGREAVYRRIRGDVSFDLEELSIISKALNISIDDVL” the value was -4.15.
In the case of “HMDELNFGNFEGTRIFVQRTARKKSIALSIRDGTIVILAPRHIPNQEIQELITTNTDWIRAKLSQHAETKR” it was -1.75; in that of “HMNMPYGTVKWFNDAKGFGFIAPEDGSADVFVHFSAINSKGFRSLQEGQRVSYEVTTGPKGAQAAGVTPVT”, -0.331.
Regarding “HMGLSASVIQMFADLGYTSEGRSTKEMITDYQIDHSIIKNSTEDGAGTYGPRTKASLSTVHAQYI”, the “soluble fraction (log2)” value is -0.103.
For “HMNIGSKLRYLIEEANITQRQLADALHISPSALNGYINQGKEPDYATLVRIADYFHTSTDYLLGHSNIR” the value was -0.00171; for “HMTGSLRVTSSPSGAEIYVDEIYRGYTPLTIGSLSTGRHEVRLHLSGYQDYTRTVEIESGSQSSFSVTLT”, 0.0152; for “HMHAGMKSWTIQYEKSPIYGSFLMYKDGNIYIQKEDNVVVHFPLDRFSQNDQAILKSRIEKIDQINKSS”, -0.0347.
For “HMGRPQISDELRNAIIEVAKDNRDWGYIRIQGQLKYLGYRVSTATIGKVLKKAGLEPQPDRRRK” the value was -0.264; for “HMDRPEPLYIVNGKEVQTLEEAFELGRTLGSAKKGTQVRLRRLLPEEGVEKYGEKGRNGVFEFMVSA”, 0.217; for “HMDLRIIKTKKAIKTAFLNLLKENKYHNITISAISETALINRKTFYAHYETKDELYADVIEDALRVLSP”, 0.0478.
In the case of “HMIAVLEEGSHFRAVNDVTGKPFGPEMVIKNGQVTAVGKTISTKPKNLLGKKEGTKFVISGKQYVIKDI” it was -0.00494.
Consider “HMRQQLAEILQKAVDNLPEAQRLVWLLRDKSDMTFKEIAEDLQLTEANVRVLLHRARLKLLAVINQYEE”, for which the “soluble fraction (log2)” value is -1.38.
In the case of “HMEKMLENIDLKAAVEALPEREKKVILLRYYRGMTQDAAAKVMKVSQVQISRIEKRAIEILREKL” it was -1.52.
For “HMEIELHNLALNIKEFRKKNKLSQAELAEKLGVARTTIGYYERAEVEPNIYTLVQLSKLMNRSIDSLLGL” the value was -1.3.
For “HMLQYSQEIEEAQKILQNLGLYKGEIDGINGVNTKSAIKEFQRKSGLIIDGILGPNTTSALSKGAESYITV” the value was 0.112; for “HMGRTKEEIFNILKERIVTLQYEPGKILNEIELSEEFEVSRTPIRTVFQQLEAVKLVSIVPRYGVQVA”, -1.27.
As for “HMVEQVEISILPGEYSDTISQKLLDAGLIDDKAAFSKYINDTNVDNLIQPGTFTVPKGASYEEVAKILT”, the “soluble fraction (log2)” value amounted to 0.212.
For “HMAEDDAVQKAVREAVAESADAVADYKAGSERALNFIVGVVMKKTRGKASPGEVHRLVKAEVEK” the value was 0.4.
In the case of “HMQTPPGRYRHYKGGLYEVIATARHSETLEPMTVYRALYGEQGLWVRPAAMFAEDITLEGVRQPRFARI” it was -1.91.
Turning to “HMAYLTVPAVIAKDTKKSIQLLESKGFEVVIQDSIYTDTLARGTVIKQLPDPNATVKINRTVYLTVNRYTP”, the “soluble fraction (log2)” value was -2.1.
